Reference: the Immune Epitope Database (IEDB)
pKd: −log10 of the molar value.

How the values were obtained:
Experiment in all cases: IEDB peptide-MHC binding, purified MHC/competitive/radioactivity; filed as Kd, often an IC50 or EC50 that approximates it; ≥ and ≤ were set here for values at or beyond the usual limits of such assays
HLA-A*03:01 = biological target: HLA-A*03:01
HLA-A*33:01 = biological target: HLA-A*33:01
HLA-A*11:01 = biological target: HLA-A*11:01
HLA-A*68:01 = biological target: HLA-A*68:01
HLA-A*31:01 = biological target: HLA-A*31:01
[1] = source organism: Vaccinia virus WR
[2] = source organism: Vaccinia virus Copenhagen
[3] = source organism: Dengue virus 1 Singapore/S275/1990
[4] = source organism: Dengue virus 2 Jamaica/1409/1983
[5] = source organism: Dengue virus 1 Brazil/97-11/1997
[6] = source organism: Lassa virus Josiah
[7] = source organism: Dengue virus 4 Philippines/H241/1956
[8] = source organism: SARS coronavirus Tor2
[9] = source organism: Triticum aestivum

| Sequence | pKd (HLA-A*03:01; [1]) | pKd (HLA-A*33:01; [1]) | pKd (HLA-A*11:01; [1]) | pKd (HLA-A*68:01; [1]) | pKd (HLA-A*31:01; [1]) | also measured |
| --- | --- | --- | --- | --- | --- | --- |
| IIDAKNDDWK | 5.20 | ≤ 4.15 | 4.80 | 5.64 | ≤ 4.15 |  |
| IILANERYR | 5.02 | 5.56 | 5.18 | 7.03 | 6.97 |  |
| ILARRPTPK |  |  |  |  |  | pKd (HLA-A*03:01; [2]): 8.88; pKd (HLA-A*33:01; [2]): ≤ 4.17; pKd (HLA-A*11:01; [2]): 7.34; pKd (HLA-A*68:01; [2]): 5.75; pKd (HLA-A*31:01; [2]): 5.81 |
| ILARRPTPKK |  |  |  |  |  | pKd (HLA-A*03:01; [2]): 8.77; pKd (HLA-A*33:01; [2]): ≤ 4.15; pKd (HLA-A*11:01; [2]): 8.40; pKd (HLA-A*68:01; [2]): 5.62; pKd (HLA-A*31:01; [2]): 4.74 |
| ISNMLNIMNR |  |  |  |  |  | pKd (HLA-A*33:01; [3]): 6.80; pKd (HLA-A*31:01; [3]): ≤ 4.42 |
| ITWIGMNSR |  |  |  |  |  | pKd (HLA-A*33:01; [4]): 7.45; pKd (HLA-A*31:01; [4]): 7.95 |
| KAGNILFWPY | 6.61 | ≤ 4.15 | 6.44 | 4.85 | ≤ 4.65 |  |
| KAMLYIIRR | 5.92 | 6.82 | 7.84 | 7.70 | 9.50 |  |
| KSAAIDGEYR |  |  |  |  |  | pKd (HLA-A*68:01; [5]): 6.87; pKd (HLA-A*31:01; [5]): 8.39 |
| LFSKNILKY | 6.72 | 5.06 | 5.22 | 6.35 | 5.41 |  |
| LISLNSMYTR | 5.96 | 6.94 | 7.64 | 7.41 | 8.95 |  |
| LLKILDNLR | 4.71 | 7.07 | 6.20 | 6.15 | 7.68 |  |
| LLLRKLTSK |  |  |  |  |  | pKd (HLA-A*03:01; [4]): 7.54 |
| LLNETAKVIK | 5.80 | 4.81 | 6.64 | 5.40 | 5.61 |  |
| LMWNKQFIK | 8.20 | 7.50 | 8.59 | 6.70 | 7.89 |  |
| LMYALEPRK | 8.25 | ≤ 4.59 | 7.27 | 6.09 | 5.25 |  |
| LSCAVHLIIY | 4.97 | 5.42 | ≤ 4.21 | 6.44 | 5.27 |  |
| LTYSQLMTLK |  |  |  |  |  | pKd (HLA-A*03:01; [6]): 7.53; pKd (HLA-A*33:01; [6]): 4.97; pKd (HLA-A*11:01; [6]): 7.94; pKd (HLA-A*68:01; [6]): 8.30; pKd (HLA-A*31:01; [6]): 5.71 |
| LVEYGTVVNK |  |  |  | 6.67 |  |  |
| LVTPSMTMR |  |  |  |  |  | pKd (HLA-A*31:01; source organism: Dengue virus 3 Martinique/1243/1999): 6.46 |
| LVTRKCPQKK | ≤ 4.15 | ≤ 4.15 | 4.80 | ≤ 4.15 | ≤ 4.15 |  |
| MALFQPANK |  |  |  |  |  | pKd (HLA-A*11:01; source organism: Mammarenavirus juninense): 7.32 |
| MIRPQPMEHK |  |  |  |  |  | pKd (HLA-A*03:01; [5]): 8.05 |
| MSRGYFEHMK | 7.50 | 5.66 | 8.14 | 8.05 | 7.66 |  |

| Sequence | pKd (HLA-A*03:01; [1]) | pKd (HLA-A*33:01; [1]) | pKd (HLA-A*11:01; [1]) | pKd (HLA-A*68:01; [1]) | pKd (HLA-A*31:01; [1]) | also measured |
| --- | --- | --- | --- | --- | --- | --- |
| MSRVRISLIY | 6.57 | 4.97 | 6.26 | 6.58 | 5.51 |  |
| MTATPPGSR |  |  |  |  |  | pKd (HLA-A*68:01; [4]): 7.74 |
| MTIIGRRLQR |  |  |  |  |  | pKd (HLA-A*33:01; [7]): 7.49; pKd (HLA-A*68:01; [7]): 7.98; pKd (HLA-A*31:01; [7]): 7.82 |
| MTLDDLAIK | 6.03 | 5.63 | 7.43 | 7.40 | 6.39 |  |
| MTLVPVLEKK | 8.07 | 6.06 | 9.33 | 8.88 | 6.91 |  |
| NLKQLPFFYY |  |  |  |  |  | pKd (HLA-A*03:01; [8]): ≤ 4.44; pKd (HLA-A*33:01; [8]): ≤ 4.15; pKd (HLA-A*11:01; [8]): 5.27; pKd (HLA-A*68:01; [8]): ≤ 5.00; pKd (HLA-A*31:01; [8]): ≤ 4.15 |
| NMINKLYGY | 5.59 | 4.84 | 4.73 | ≤ 4.50 | ≤ 4.42 |  |
| NVTLFYCDER | 5.22 | 6.09 | 5.55 | 8.08 | 6.11 |  |
| NVVHAIILH |  |  |  |  |  | pKd (HLA-A*03:01; [9]): 4.71; pKd (HLA-A*33:01; [9]): ≤ 4.61; pKd (HLA-A*11:01; [9]): ≤ 4.37; pKd (HLA-A*68:01; [9]): 5.83; pKd (HLA-A*31:01; [9]): 4.85 |
| PLTSLVITY | 4.86 | ≤ 4.33 | ≤ 4.66 | 5.25 | 5.73 |  |
| PTKRCRLLK | 5.96 | ≤ 4.63 | 5.98 | ≤ 4.64 | 5.27 |  |
| RMLINRFTMK |  |  |  |  |  | pKd (HLA-A*03:01; [4]): 8.21; pKd (HLA-A*11:01; [4]): 6.48 |
| SIMKNTTNTR |  |  |  |  |  | pKd (HLA-A*68:01; [4]): 6.86; pKd (HLA-A*31:01; [4]): 6.17 |
| SQLAKRFSK |  |  |  |  |  | pKd (HLA-A*11:01; [5]): 7.30 |
| STQSVLCVKK | 6.93 |  | 9.80 | 8.45 | 6.74 |  |
| SYVMCTGSFK |  |  |  |  |  | pKd (HLA-A*03:01; [5]): 6.95; pKd (HLA-A*33:01; [5]): 7.75 |
| TAGPWHLGK |  |  |  |  |  | pKd (HLA-A*11:01; [4]): 7.18 |
| TAKEVALLR |  |  |  |  |  | pKd (HLA-A*33:01; [7]): 7.76; pKd (HLA-A*68:01; [7]): 7.12 |
| TIFAGHLKCR |  |  |  |  |  | pKd (HLA-A*68:01; [5]): 7.77 |
| TTILTPMLR |  |  |  |  |  | pKd (HLA-A*33:01; [7]): 7.44; pKd (HLA-A*11:01; [7]): 6.41; pKd (HLA-A*68:01; [7]): 7.96 |
| TVGPWHLGK |  |  |  |  |  | pKd (HLA-A*03:01; [7]): 7.77; pKd (HLA-A*11:01; [7]): 7.61 |
| VVGAGGVGK |  |  |  |  |  | pKd (HLA-A*03:01; source organism: Homo sapiens): 6.90; pKd (HLA-A*11:01; source organism: Homo sapiens): 7.04 |
| WSYYCGGLK |  |  |  |  |  | pKd (HLA-A*03:01; [4]): 8.89 |
